Measurements from patent US20260098102A1 (NATIONAL UNIVERSITY CORPORATION KOBE UNIVERSITY, published 2026).
Like-named read-outs stand apart in the source and are kept apart here.

T1: monkey SIRPA protein (cynomolgus monkey, UniProt P78324 31-504 (human entry))
T1 construct: Expressed on 293α cells from pcDNA3.2 V5-DEST or pFLAG V5-DEST vectors; also called cynomolgus monkey SIRPA; cSIRPA
T1 chain: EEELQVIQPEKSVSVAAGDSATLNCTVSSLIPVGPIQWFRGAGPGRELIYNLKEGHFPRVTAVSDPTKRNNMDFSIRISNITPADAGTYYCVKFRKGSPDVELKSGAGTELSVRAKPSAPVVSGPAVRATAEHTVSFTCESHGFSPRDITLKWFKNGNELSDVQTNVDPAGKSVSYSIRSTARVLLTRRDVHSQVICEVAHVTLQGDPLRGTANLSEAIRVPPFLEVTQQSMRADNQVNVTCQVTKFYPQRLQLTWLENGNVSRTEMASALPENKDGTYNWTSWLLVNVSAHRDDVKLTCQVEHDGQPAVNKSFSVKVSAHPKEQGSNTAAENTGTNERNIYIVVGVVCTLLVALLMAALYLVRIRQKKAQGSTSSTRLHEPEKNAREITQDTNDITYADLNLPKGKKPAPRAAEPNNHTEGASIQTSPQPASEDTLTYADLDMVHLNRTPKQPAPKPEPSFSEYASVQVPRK


Legend:
SIRPA_V1_IgV = molecular target: T2, SIRPA_V1_IgV (human, UniProt P78324 31-149); assay: SPR Biacore T200, antibody captured, SIRPA_V1_IgV as analyte, 1:1 model
T2 construct: Secreted recombinant protein from FreeStyle 293F cells
T2 sequence (P78324 other isoform, or with tags, fused parts or gaps limits assumed): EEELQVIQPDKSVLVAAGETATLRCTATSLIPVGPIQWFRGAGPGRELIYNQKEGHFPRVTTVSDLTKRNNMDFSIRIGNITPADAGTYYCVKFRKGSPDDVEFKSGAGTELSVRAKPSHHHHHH
Protocol: The dissociation constants of the cD13, cF44, and cF63 prepared in Example 4 against the human SIRPA_V1_IgV prepared in Example 1 were determined by a capture method comprising capturing a human chimeric antibody as a ligand and measuring an antigen as an analyte, using Biacore T200 (GE Healthcare Bioscience Corp.). HBS-EP+ (GE Healthcare Bioscience Corp.) was used as a running buffer, and CM5 (GE Healthcare Bioscience Corp.) was used as a sensor chip. In an amount of 1 μg/mL human chimeric antibody was added onto a chip at a rate of 10 μL/min for 60 seconds, a serially diluted solution of human SIRPA protein as an antigen (0.5 to 8 μg/mL) was added at a flow rate of 30 μL/min for 120 seconds, and the dissociation phase continued to be monitored for 600 seconds. As a regenerant, 3 M magnesium chloride (GE Healthcare Bioscience Corp.) was added at a flow rate of 20 μL/min for 30 seconds. For data analysis, the binding rate constant (ka), dissociation rate constant (kd), and dissociation constant (KD; KD=kd/ka) were calculated using a 1:1 binding model.

human SIRPA_V1 protein [1] = molecular target: T3, human SIRPA_V1 protein (human, UniProt P78324 31-504); assay: blocking cell-based ELISA: peroxidase-labeled CD47-Fc (10,000 ng/mL) on 293α cells expressing SIRPA_V1; y axis = CD47-Fc signal in % of no antibody [i]
T3 construct: Expressed on 293α cells from pcDNA3.2 V5-DEST or pFLAG V5-DEST (FLAG-tagged) vectors; also called human SIRPA Variant 1; hSIRPA V1
Protocol: (§1) After the culture supernatant of the human SIRPA and monkey SIRPA expression vector-introduced 293α cells prepared in Examples 5)-1 and 5)-2, respectively, was removed, 50 μL per well of cD13 (IgG2 and IgG4pf), cF44 (four different constant regions IgG1, IgG2, IgG4p, and IgG4pf), and cF63 (IgG2 and IgG4pf) diluted with 5% FBS-containing PBS to final concentrations of 0 to 10,000 ng/mL were added to each of pcDNA3.2 V5-DEST-SIRPA_V1, pcDNA3.2 V5-DEST-monkey SIRPA, and pcDNA3.2 V5-DEST-introduced 293α cells, immediately followed by addition of 50 μL per well of peroxidase-labeled CD47-Fc prepared in 5% FBS-containing PBS at a final concentration of 10,000 ng/ml, and the mixture was allowed to stand at 4° C. for one hour. Thereafter, the SIRPA-CD47 binding inhibitory activity was evaluated in the same manner as in 1)-6-3.

human SIRPA_V1 protein [2] = molecular target: T3, human SIRPA_V1 protein; assay: cell-based ELISA on 293α cells expressing FLAG-tagged SIRPA_V1; Abs 490 normalized to FLAG tag
Protocol: (§2) The 293α cells [described in Example 1)-6] were prepared in a 10% FBS-containing DMEM medium to 5×10⁵ cells/mL. pFLAG V5-DEST-SIRPA_V1, pFLAG V5-DEST-SIRPA_V2, or pFLAG V5-DEST was introduced into the cells using Lipofectamine LTX (Invitrogen), followed by addition of 100 μL per well to a 96-well plate (Corning Incorporated), and cells were cultured overnight in the 10% FBS-containing DMEM medium at 37° C. under a 5% CO₂ condition. The obtained introduced cells were used for cell-based ELISA in a state that they adhered to each other. After the culture supernatant was removed, 50 μL per well of the cD13 (IgG2 and IgG4pf), cF44 (IgG1, IgG2, IgG4p, and IgG4pf), and cF63 (IgG2 and IgG4pf) antibodies prepared in Examples 3 and 4 were added to each of pFLAG V5-DEST-SIRPA_V1, pFLAG V5-DEST-SIRPA_V2, or pFLAG V5-DEST-introduced cells at final concentrations of 0 to 10,000 ng/mL, and the mixture was allowed to stand at 4° C. for one hour. Further, 50 μL per well of anti-FLAG M2 antibody (SIGMA) diluted with 5% FBS-containing PBS to a final concentration of 10,000 ng/mL was added to a well for detecting expression of each SIRPA construct, and the mixture was allowed to stand at 4° C. for one hour. The cells in the well were washed once with 5% FBS-containing PBS, followed by addition of Peroxidase AffiniPure F(ab′)₂ Fragment Goat Anti-Human IgG, Fcγ Fragment Specific (Jackson ImmunoResearch) diluted 1000-fold with 5% FBS-containing PBS, and the mixture was allowed to stand at 4° C. for one hour. The cells in the well were washed five times with 5% FBS-containing PBS, followed by addition of 100 μL per well of an OPD coloration solution [o-phenylenediamine dihydrochloride (Wako Pure Chemical Industries, Ltd.) and H₂O₂ were dissolved in an OPD solution (0.05 M trisodium citrate, 0.1 M disodium hydrogen phosphate dodecahydrate, pH 4.5) at 0.4 mg/mL and 0.6% (v/v), respectively]. A coloration reaction was performed with stirring occasionally, 100 μL per well of 1 M HCl was added to terminate the coloration reaction, and then absorbance at 490 nm was measured with a plate reader ARVO (PerkinElmer Inc.). Binding of the human chimeric anti-human SIRPA antibodies to each construct was standardized by expression of the FLAG tag.
Target sequence in this assay (P78324 31-504 limits assumed): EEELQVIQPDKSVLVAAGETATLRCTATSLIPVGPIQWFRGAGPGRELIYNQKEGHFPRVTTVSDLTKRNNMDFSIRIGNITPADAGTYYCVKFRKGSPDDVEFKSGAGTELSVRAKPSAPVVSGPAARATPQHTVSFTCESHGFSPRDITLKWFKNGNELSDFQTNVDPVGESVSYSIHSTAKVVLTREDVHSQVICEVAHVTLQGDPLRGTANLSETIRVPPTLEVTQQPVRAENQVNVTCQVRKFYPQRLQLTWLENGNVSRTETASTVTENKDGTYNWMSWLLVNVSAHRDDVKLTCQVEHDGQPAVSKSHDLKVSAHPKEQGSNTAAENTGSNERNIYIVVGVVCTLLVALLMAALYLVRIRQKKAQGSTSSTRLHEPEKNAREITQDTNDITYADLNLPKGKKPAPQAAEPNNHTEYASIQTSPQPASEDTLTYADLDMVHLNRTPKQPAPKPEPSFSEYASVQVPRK

monkey SIRPA protein = molecular target: T1, monkey SIRPA protein; assay: cell-based ELISA on 293α cells expressing FLAG-tagged monkey SIRPA; Abs 490 normalized to FLAG tag
human SIRPA_V2 protein [3] = molecular target: T4, human SIRPA_V2 protein (human, UniProt P78324 31-504); assay: blocking cell-based ELISA: peroxidase-labeled CD47-Fc (10,000 ng/mL) on 293α cells expressing SIRPA_V2; y axis = CD47-Fc signal in % of no antibody [ii]
T4 construct: Expressed on 293α cells from pcDNA3.2 V5-DEST or pFLAG V5-DEST (FLAG-tagged) vectors; also called human SIRPA Variant 2; ECD variant (full-length, amino acids 1 to 504)

human SIRPA_V2 protein [4] = molecular target: T4, human SIRPA_V2 protein; assay: as above; remark: listed apart in the source
Target sequence in this assay (P78324 other isoform, or with tags, fused parts or gaps limits assumed): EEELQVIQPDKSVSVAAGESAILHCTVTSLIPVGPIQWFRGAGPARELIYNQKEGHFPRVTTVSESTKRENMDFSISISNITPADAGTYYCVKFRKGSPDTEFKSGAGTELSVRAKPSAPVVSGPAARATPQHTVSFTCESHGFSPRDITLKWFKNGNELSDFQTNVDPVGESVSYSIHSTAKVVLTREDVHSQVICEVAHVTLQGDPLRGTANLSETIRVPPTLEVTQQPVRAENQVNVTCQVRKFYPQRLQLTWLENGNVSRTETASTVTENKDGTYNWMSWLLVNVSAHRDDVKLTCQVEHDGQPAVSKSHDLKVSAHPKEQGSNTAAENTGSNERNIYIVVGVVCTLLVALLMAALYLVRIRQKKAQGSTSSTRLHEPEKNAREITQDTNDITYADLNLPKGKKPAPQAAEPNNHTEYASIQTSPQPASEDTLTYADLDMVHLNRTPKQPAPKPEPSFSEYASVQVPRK

human SIRPA_V2 protein [5] = molecular target: T4, human SIRPA_V2 protein; assay: cell-based ELISA on 293α cells expressing FLAG-tagged SIRPA_V2; Abs 490 normalized to FLAG tag
Protocol: as §2

human SIRPA_V1 protein [6] = molecular target: T3, human SIRPA_V1 protein; assay: blocking cell-based ELISA: peroxidase-labeled CD47-Fc (10,000 ng/mL) on 293α cells expressing SIRPA_V1; y axis = CD47-Fc signal in % of no antibody [i]; remark: listed apart in the source
Protocol: as §1
Target sequence in this assay (P78324 31-504 limits assumed): as the sequence (P78324 31-504 limits assumed) above

Row | Kd (SIRPA_V1_IgV) | IC50 (read off the curve) (human SIRPA_V1 protein [1]) | EC50 (read off the curve) (human SIRPA_V1 protein [2]) | EC50 (read off the curve) (monkey SIRPA protein) | IC50 (read off the curve) (human SIRPA_V2 protein [3]) | IC50 (read off the curve) (human SIRPA_V2 protein [4]) | EC50 (read off the curve) (human SIRPA_V2 protein [5]) | IC50 (read off the curve) (human SIRPA_V1 protein [6]) | Binder
1 | 166 pM | ~0.1 µg/mL | ~0.05 µg/mL | ~0.09 µg/mL | ~0.2 µg/mL |  |  |  | human chimeric anti-SIRPA antibody cF63 (antibody, human IgG4 S228P, lambda, F234A L235A, V domains shown, Human IgG4proFALA heavy chain, human lambda light chain; also called cF63 (IgG4pf); human chimeric antibody F63) VH: QVQLKESGPGLVQPSETLSLTCTVSGFSLASYSLSWVRQPSGKGPEWMGRMYYDGDTAYNSALKSRLSISRDTSKNQVFLKMNSLQTDDTGTYYCTRDRSMFGTDYPHWYFDFWGPGTMVTVSS VL: QFTLTQPKSVSGALRSTITIPCERSSGDIGDSYVSWYQRHLGRPPINVIYADDQRPSEVSDRFSGSIDSSSNSASLTITNLQMDDEADYFCQSYDSKIDIFGGGTKLTVLG
2 | 1720 pM | ~0.6 µg/mL | ~0.05 µg/mL | ~0.08 µg/mL | ~0.4 µg/mL | ~0.4 µg/mL | ~0.05 µg/mL | ~0.6 µg/mL | human chimeric anti-SIRPA antibody cF44 (antibody, human IgG4 S228P, kappa, F234A L235A, V domains shown, Human IgG4proFALA heavy chain, human kappa light chain; also called cF44 (IgG4pf); human chimeric antibody F44) VH: EVQLVESGGGLVQPGRSLKLSCAASGFTFSNYYMAWVRQAPTKGLEWVTYITTGGGSTYFRDSVKGRFTISRDNAESTLYLQMDSLRSEDTATYYCTAANYGGSYFDYWGQGVMVTVSS VL: DVQMTQSPSNLAASPGESVSINCKASKSISKYLAWYQQKPGKANKLLIYSGSTLQSGTPSRFSGSGSGTDFTLTIRNLEPEDFGLYYCQQHNEYPPTFGAGTKLELKR
